Measured values as given in patent US20240117018A1.

Experiments:
Assay in all cases: cell-based or functional assay
[1] = target: HIV-1 Env pseudovirus 3817.v2.c59 (HIV-1)
[2] = target: HIV-1 Env pseudovirus BJOX009000.02.4 (HIV-1)
[3] = target: HIV-1 Env pseudovirus 6545.v4.c1 (HIV-1)
[4] = target: HIV-1 Env pseudovirus R2184.c04 (HIV-1)
[5] = target: HIV-1 Env pseudovirus 89-F1_2_25 (HIV-1)
[6] = target: HIV-1 Env pseudovirus C3347.c11 (HIV-1)
[7] = target: HIV-1 Env pseudovirus 3016.v5.c45 (HIV-1)
[8] = target: Env of HIV-1 pseudovirus TRJO4551.58 (HIV-1)
[9] = target: Env of HIV-1 pseudovirus AC10.0.29 (HIV-1)
[10] = target: Env of HIV-1 pseudovirus HIV-16845-2.22 (HIV-1)
[11] = target: Env of HIV-1 pseudovirus Ce703010054_2A2 (HIV-1)
[12] = target: Env of HIV-1 pseudovirus 928-28 (HIV-1)
[13] = target: Env of HIV-1 pseudovirus CNE17 (HIV-1)
[14] = target: Env of HIV-1 pseudovirus ZM109F.PB4 (HIV-1)
[15] = target: Env of HIV-1 pseudovirus SC422661.8 (HIV-1)
[16] = target: Env of HIV-1 pseudovirus 62357_14_D3_4589 (HIV-1)
[17] = target: Env of HIV-1 pseudovirus 6244_13_B5_4576 (HIV-1)
[18] = target: Env of HIV-1 pseudovirus 6240_08_TA5_4622 (HIV-1)
[19] = target: Env of HIV-1 pseudovirus 1054_07_TC4_1499 (HIV-1)

3BNC117 (antibody) gave an IC50 (Titer in TZM.bl cells) [1] of 0.15 µg/mL, an IC80 (Titer in TZM.bl cells) [1] of 0.52 µg/mL and an IC50 (Titer in TZM.bl cells) [2] of 0.4 µg/mL. It also gave an IC80 (Titer in TZM.bl cells) [2] of 1.79 µg/mL, an IC50 (Titer in TZM.bl cells) [3] of over 50 µg/mL and an IC80 (Titer in TZM.bl cells) [3] of over 50 µg/mL. For the same substance, the IC50 (Titer in TZM.bl cells) [4] was 0.03 µg/mL, the IC80 (Titer in TZM.bl cells) [4] was 0.1 µg/mL and the IC50 (Titer in TZM.bl cells) [5] was over 50 µg/mL. The IC80 (Titer in TZM.bl cells) [5] was over 50 µg/mL, the IC50 (Titer in TZM.bl cells) [6] was 0.03 µg/mL and the IC80 (Titer in TZM.bl cells) [6] was 0.13 µg/mL. For the same substance, the IC50 (Titer in TZM.bl cells) [7] was 1.38 µg/mL and the IC80 (Titer in TZM.bl cells) [7] was over 30 µg/mL.
Substance 8ANC195 (antibody) has an IC50 (Titer in TZM.bl cells) [1] of 1 µg/mL, an IC80 (Titer in TZM.bl cells) [1] of 5.3 µg/mL and an IC50 (Titer in TZM.bl cells) [2] of 0.64 µg/mL. It also gave an IC80 (Titer in TZM.bl cells) [2] of 3.09 µg/mL, an IC50 (Titer in TZM.bl cells) [3] of 26.9 µg/mL and an IC80 (Titer in TZM.bl cells) [3] of over 50 µg/mL. The IC50 (Titer in TZM.bl cells) [4] was 0.09 µg/mL, the IC80 (Titer in TZM.bl cells) [4] was 13 µg/mL and the IC50 (Titer in TZM.bl cells) [5] was over 50 µg/mL. It also gave an IC80 (Titer in TZM.bl cells) [5] of over 50 µg/mL, an IC50 (Titer in TZM.bl cells) [6] of over 50 µg/mL and an IC80 (Titer in TZM.bl cells) [6] of over 50 µg/mL. The IC50 (Titer in TZM.bl cells) [7] was 0.87 µg/mL and the IC80 (Titer in TZM.bl cells) [7] was over 50 µg/mL.
Work on 10-1074 (antibody) yielded an IC50 [8] of 0.17 µg/mL, an IC80 [8] of 0.634 µg/mL and an IC50 [9] of 0.022 µg/mL. It also gave an IC80 [9] of 0.11 µg/mL, an IC50 [10] of 1.17 µg/mL and an IC80 [10] of 5.83 µg/mL. For the same substance, the IC50 [11] was over 50 µg/mL, the IC80 [11] was over 50 µg/mL and the IC50 [12] was 0.847 µg/mL. The IC80 [12] was 4.7 µg/mL, the IC50 [13] was 2.69 µg/mL and the IC80 [13] was 13.3 µg/mL. It also gave an IC50 [14] of over 50 µg/mL, an IC80 [14] of over 50 µg/mL and an IC50 [15] of 0.091 µg/mL. The IC80 [15] was 0.418 µg/mL, the IC50 [16] was over 50 µg/mL and the IC80 [16] was over 50 µg/mL. The IC50 [17] was 0.202 µg/mL, the IC80 [17] was 0.922 µg/mL and the IC50 [18] was 0.068 µg/mL. The IC80 [18] was 0.306 µg/mL, the IC50 [19] was 0.129 µg/mL and the IC80 [19] was 0.563 µg/mL.
10E8 (antibody) showed an IC50 [8] of 0.475 µg/mL, an IC80 [8] of 4.78 µg/mL and an IC50 [9] of 0.132 µg/mL. It also gave an IC80 [9] of 1.53 µg/mL, an IC50 [10] of 0.068 µg/mL and an IC80 [10] of 0.495 µg/mL. It also gave an IC50 [11] of 2.3 µg/mL, an IC80 [11] of 8.58 µg/mL and an IC50 [12] of 0.384 µg/mL. For the same substance, the IC80 [12] was 1.96 µg/mL, the IC50 [13] was 1.11 µg/mL and the IC80 [13] was 5.25 µg/mL. For the same substance, the IC50 [14] was 0.295 µg/mL, the IC80 [14] was 1.89 µg/mL and the IC50 [15] was 0.445 µg/mL. The IC80 [15] was 2.71 µg/mL, the IC50 [16] was 0.119 µg/mL and the IC80 [16] was 1.06 µg/mL. The IC50 [17] was 0.086 µg/mL, the IC80 [17] was 0.809 µg/mL and the IC50 [18] was 0.756 µg/mL. The IC80 [18] was 5.59 µg/mL, the IC50 [19] was 0.046 µg/mL and the IC80 [19] was 0.305 µg/mL.
